Test results taken from the RNAGym collection of RNA variant scans (doi:10.1073/pnas.2313332121).

B1: TPR t1 (parent)
chain: GACCAAUCUGCCCUCAGAGCUCGAGAACAUCUUCGGAUGCAGAGGAGGCAGGCUUCGGUGGCGCGAUAGCGCCAACGUCCUCAACCUCCAAUGCAUCCCACCACAUGAUGAUGCCUGAAGAGCCUUGGUUUUUUG

Variants of: B1
Assay: polymerase ribozyme fitness, log enrichment relative to wild type (log ratio); higher = more active; in vitro selection for triplet polymerase activity
Procedure, shortened: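 Fitness is a logarithmic measure of how a genotype enriched relative to the wild type, with replicate averages weighted by inverse variance. The logarithm uses base 2, and enrichment came from Illumina sequencing of input and output libraries. Those libraries were PCR-built, transcribed mutants of each subunit of a heterodimeric triplet polymerase ribozyme, passed through one triplicate in vitro selection round that included frozen incubation at −7 °C, gel excision of extended constructs and streptavidin-bead capture. Genotypes were kept only if they had ≥10 input reads and ≥1 read per output.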

In order of rising “polymerase ribozyme fitness (log ratio)” value:
1. GACCAAUCUGCCCUCAGAGCUCGAGAACAUCUUCGGAUGCAGAGGAGGCAGGCUUCGGAGGCGCGAUAGCGACAACGUCCUCAACCUCCAAUGCAUCCCACCACAUGAAGAUGCCUGAAGAGCCUUGGUUUUUUG  -7.12
2. GACCAAUCUGCCCUCAGAGCUCGAGAACAUCUUCGGAUGCAGAGGAGGCAGGCUUCGGAGGCGCGAUAGCGCCAACAUCCUCCACCUCCAAAGCAUCCCACUACAUGACGAUGUCUGAAGAGCCUUGGUUUUUUG  -6.72
3. GACCAAUCUGCCCUCAGAGCUCGAGAACAUCUUCGGAUGCAGAGGAGGCAGGCUUCGGCGGCGCGAUAGCGCCAACGUCCUCAACCUCCAAUGCAUACCACCACAUGACGAUGGCUGAAGAUCCUUGGUUUUUUG  -6.59
4. GACCAAUCUGCCCUCAGAGCUCGAGAACAUCUUCGGAUGCAGAGGAGGCAGGCUUCGGCGGCGCGAUAGCGCCAACGUCCUCAACCUCCAAUGCAUCCCACCACAUCAUGAAGCCUGAAGAGCCUUGGUUUUGUG  -6.34
5. GACCAAUCUGCCCUCAGAGCUCGAGAACAUCUUCGGAUGCAGAGGAGGCAGGCUUCGGCGGCGCGAUAGCGCCAACGUCCUCAACCUCCAAUGCAUCCCACCACAUAAUGAUGCCUGAAGAGCCUUGGUUUUUUG  -5.95
6. GACCAAUCUGCCCUCAGAGCUCGAGAACAUCUUCGGAUGCAGAGGAGGCAGGCUUCGGAGGCGCGAUAGUGCCAACGUCCUCAACCUCCAAUGCAUCCCACAACUUGAUGGUGCCUGAAGAGCCUUGAAUUUUUG  -5.83
7. GACCAAUCUGCCCUCAGAGCUCGAGAACAUCUUCGGAUGCAGAGGAGGCAGGCUUCGGAGGCGCGAUAGCGCCAACGUCCUCAACCUCCAAUGCAUCCCACUCCAUGAUGAUGCCUGAAGAGCCUUGGUUUUUUG  -5.53
8. GACCAAUCUGCCCUCAGAGCUCGAGAACAUCUUCGGAUGCAGAGGAGGCAGGCUUCGGCGGCGCGAUAGCGCCAACGUCCUCAACCUCCAAUGCAUCCCACCUCAUGAUGACGCCUGAAGAGCCUUGUUUUAAUG  -5.05
9. GACCAAUCUGCCCUCAGAGCUCGAGAACAUCUUCGGAUGCAGAGGAGGCAGGCUUCGGCGGCGCGAUAGCGCCAACGUCCUCAACCUCCAAUGCAUCCCACAACAUGAUGAUGCGUGAAGAGCCUUGGUUUUUUG  -4.44
10. GACCAAUCUGCCCUCAGAGCUCGAGAACAUCUUCGGAUGCAGAGGAGGCAGGCUUCGGGGGAGCGAUAGCGCCAACGUCCUCAACCUCCAAUGCUUCCCACCACAUGAUGAUGCCUGAAGAGCCUUGGUUUUUUG  -3.76
11. GACCAAUCUGCCCUCAGAGCUCGAGAACAUCUUCGGAUGCAGAGGAGGCAGGCUUCGGAGGCGCGAUAGCGCCAACGUCCUCAACCUCCAAUGCAUCCCAACACAUGAUGAUGACUGAAGAGCCUUGGUUUUUUG  -2.95
12. GACCAAUCUGCCCUCAGAGCUCGAGAACAUCUUCGGAUGCAGAGGAGGCAGGCUUCGGCGGCGCGAUAGCACCAACGUCCUCAACCUCCAAUGCAUCCCACCACAUGAUGAUGCCUGAAGAGCCUUCGUUUCUUG  -2.94
13. GACCAAUCUGCCCUCAGAGCUCGAGAACAUCUUCGGAUGCAGAGGAGGCAGGCUUCGGAGGCGCGAUAGCGCCAACGUCCUCAACCUCCAAUGCUUCCCACCACAUGAUGAUGCCUGAAGAGCCUUGAUUUUUUG  -2.84
14. GACCAAUCUGCCCUCAGAGCUCGAGAACAUCUUCGGAUGCAGAGGAGGCAGGCUUCGGCGGCGCGAUAGAGCCAACGUCCUCAACCUCCAAUGCAUCCCACCACAUGAUGAUGCCUGAAGAGCCUUGGUUUUUUG  -2.41
15. GACCAAUCUGCCCUCAGAGCUCGAGAACAUCUUCGGAUGCAGAGGAGGCAGGCUUCGGCGGCGCGAUAGCGCCAACGGCCUCAACCUCCAAUGCAUCCCACCAUAUGAUGAUGCCUAAAGAGCCUUGGUUUUUUG  -2.35
16. GACCAAUCUGCCCUCAGAGCUCGAGAACAUCUUCGGAUGCAGAGGAGGCAGGCUUCGGCGGCGCGAUAGCGCCAACGUCCUCAACCUCCAAUGCAUCCCACCACAUGAUGAUGACUGAAGAGCCUUGGUAUUUUG  -2.23
17. GACCAAUCUGCCCUCAGAGCUCGAGAACAUCUUCGGAUGCAGAGGAGGCAGGCUUCGGGGGCGCGAUAGCGACAACGUCCUCAACCUCCAAUGCAUCCCACCACAUGAUGAUGCCUGAAGAGCCUUGGUUUUUUG  -2.02
18. GACCAAUCUGCCCUCAGAGCUCGAGAACAUCUUCGGAUGCAGAGGAGGCAGGCUUCGGAGGCGCGAUAGCGCCAACUUCCUCAACCUCCAAUGCAUCCCACCACAUGAUGAUGCCUGAAGAGCCUUGGUUUUUUG  -2.02
19. GACCAAUCUGCCCUCAGAGCUCGAGAACAUCUUCGGAUGCAGAGGAGGCAGGCUUCGGCGGCGUGAUAGCGCCAACGUCCACAACCUCCAAUGCAUCCCACCACAUGAUGAUGCCUGAAGAGCCUUGGUUUUUUG  -1.8
20. GACCAAUCUGCCCUCAGAGCUCGAGAACAUCUUCGGAUGCAGAGGAGGCAGGCUUCGGCGGCGCGAUAGCGCCAACGUCCUCAACCUCCAAUGCAUCCCACCACAUGAUGAUGCCUAAAGAGCCUUGGUUUUUUG  -1.62
21. GACCAAUCUGCCCUCAGAGCUCGAGAACAUCUUCGGAUGCAGAGGAGGCAGGCUUCGGCGGCGCGUUAGCGCCAACGUCCUCAACCUCCAAUGCAUCCCACCACAUGAUGAUGCCUGAAGAGCCUUGGUUUUUUG  -1.57
22. GACCAAUCUGCCCUCAGAGCUCGAGAACAUCUUCGGAUGCAGAGGAGGCAGGCUUCGGCGGCGCGGUAGCGCCAACGUCCUCAACCUCCAAUGCAUCCCACCACAUGAUGAUGCCUGAAGAGCCUUGGUUUUUUG  -1.47
23. GACCAAUCUGCCCUCAGAGCUCGAGAACAUCUUCGGAUGCAGAGGAGGCAGGCUUCGGAGGCGCGAUAGCGCCAACGUCCUCAACCUGCAAUGCAUCCCACCACAUGAUGAUGCCUGAAGAGCCUUGGUUUUUUG  -1.44
24. GACCAAUCUGCCCUCAGAGCUCGAGAACAUCUUCGGAUGCAGAGGAGGCAGGCUUCGGAGGCGCGAUAGCGCCAACGUCCUCAACCUCCAAUGCAUCCCACCACAUGAUGAUGCCUAAAGAGCCUUGGUUUUUUG  -1.36
25. GACCAAUCUGCCCUCAGAGCUCGAGAACAUCUUCGGAUGCAGAGGAGGCAGGCUUCGGCGGCGCGAUAGCGCCAACGUCCUCAACCUCCAAUGCAUCCCAACACAUGAUGAUGCCUGAAGAGCCUUGGUUUUUUG  -1.32
26. GACCAAUCUGCCCUCAGAGCUCGAGAACAUCUUCGGAUGCAGAGGAGGCAGGCUUCGGCGGCGCGAUAGCGCCAACGUCCUCAACCUCCAAUGCAUCCCACCACAUGAUAAUGCCUGAAGAGCCUUGGUUUUUUG  -1.31
27. GACCAAUCUGCCCUCAGAGCUCGAGAACAUCUUCGGAUGCAGAGGAGGCAGGCUUCGGAGGCGCGAUAGCGCCAACUUCCUCAACCUCCAAUGCAUCCCACCACAUGAUGAUGCCUGAAGAGCCUUGGUGUUUUG  -1.24
28. GACCAAUCUGCCCUCAGAGCUCGAGAACAUCUUCGGAUGCAGAGGAGGCAGGCUUCGGCGGCGCGAUAGCGCCAACGUCCUCAACUUCCAAUGCAUCCCACCACAUGAUGAUGCCUGAAGAGCCUUGGUUUUUUG  -1.17
29. GACCAAUCUGCCCUCAGAGCUCGAGAACAUCUUCGGAUGCAGAGGAGGCAGGCUUCGGCGGCGCGAUAGCGCCAACGUCCUCAACCUCCAAUGCAUCCCACCACAUGAUGAUGCCUGAAGAGCCUUCGUUUUUUG  -1.09
30. GACCAAUCUGCCCUCAGAGCUCGAGAACAUCUUCGGAUGCAGAGGAGGCAGGCUUCGGAGGAGCGAUAGCGCCAACGUCCUCAACCUCCAAUGCAUCCCCCCACAAGAUGAUGCCUGAAGAGCGUUGGUUUUUUG  -0.96
31. GACCAAUCUGCCCUCAGAGCUCGAGAACAUCUUCGGAUGCAGAGGAGGCAGGCUUCGGCCGCGCGAUAGCGCCAACGUCCUCAACCUCCAAUGCAUCCCACCACAUGAUGAUGCCUGAAGAGCCUUGGUUUUUUG  -0.854
32. GACCAAUCUGCCCUCAGAGCUCGAGAACAUCUUCGGAUGCAGAGGAGGCAGGCUUCGGAGGCGCGAUAGCGCCAACGUCCUCAAACUCCAAUGAAUCCCACCACAUGAUGAUGCCUGAAAAGCCUUGGUUUUUUG  -0.6
33. GACCAAUCUGCCCUCAGAGCUCGAGAACAUCUUCGGAUGCAGAGGAGGCAGGCUUCGGGGGCGCGAUAGCGCCAACGUCCUCCACCUCCAAUGCAUUCCACCACAUGAUGAUGCCUGAAGAGCCUUGGUUUUUUG  -0.481
34. GACCAAUCUGCCCUCAGAGCUCGAGAACAUCUUCGGAUGCAGAGGAGGCAGGCUUCGGAGUCGCGAUAGCGCCAACGUCCUCAACCUCCAAUGCAUCCCACCACAUGAUGAUGCCUGAAGAGCCUUGGUUUUUUG  -0.465
35. GACCAAUCUGCCCUCAGAGCUCGAGAACAUCUUCGGAUGCAGAGGAGGCAGGCUUCGGAGGCGCGAUAGCGCCAACGUCCUCAACCGCCAAUGCAUCCCACCACAUGAUGAUGCCUGAAGAGCCUUGGUUUUUUG  -0.319
36. GACCAAUCUGCCCUCAGAGCUCGAGAACAUCUUCGGAUGCAGAGGAGGCAGGCUUCGGAGGCGCGAUAGCGCCAACGUCCUCAACCACCAAUGCAUCCCACCACAUGAUGAUGCCUGAAGAGCCUUGGUUUUUUG  -0.298
37. GACCAAUCUGCCCUCAGAGCUCGAGAACAUCUUCGGAUGCAGAGGAGGCAGGCUUCGGAGGCGCGAUAGUGCCAACGUCCUCAACCUCCAAUGCAUCCCACCACAUGAUGAUGCCUGAAGAGCCUUGGUUUUUUG  -0.265
38. GACCAAUCUGCCCUCAGAGCUCGAGAACAUCUUCGGAUGCAGAGGAGGCAGGCUUCGGCGGCGCGAUAGCGCCAACGUCCUCACCCUCCAAUGCAUCCCACCACAUGAUGAUGCCUGAAGAGCCUUGGUUUUUUG  -0.231
39. GACCAAUCUGCCCUCAGAGCUCGAGAACAUCUUCGGAUGCAGAGGAGGCAGGCUUCGGAGUCGCGAUAGCGCCAACGUCCUCAUCCUCCAAUGCAUCCCACCACAUGAUGAUGCCUGAAGAGCCUUGGUUUUUUG  -0.153
40. GACCAAUCUGCCCUCAGAGCUCGAGAACAUCUUCGGAUGCAGAGGAGGCAGGCUUCGGAGGCGCGAUAGCGCCAACGUCCUCAACCUCCAAUGCAUCCCAUCACAUGAUGAUGCCUGAAGAGCAUUGGUUUUUUG  1.59
41. GACCAAUCUGCCCUCAGAGCUCGAGAACAUCUUCGGAUGCAGAGGAGGCAGGCUUCGGCGGCGCGAUAGCGCCAACGUCCUCAACCUCCAAUGCAUCCCACCACAUGAUGAUGCCUGAAGAGGCUUGGUUUUUUG  1.95
42. GACCAAUCUGCCCUCAGAGCUCGAGAACAUCUUCGGAUGCAGAGGAGGCAGGCUUCGGAGGCGCGAUAGCGCCAACGUCCUCAACCUCCAAUGCAUCCCACCACAUGAUGAUGCCUGAAGAGGCUUGGUUUUUUG  2
